Test results taken from article PMC6022668, “Biallelic UFM1 and UFC1 mutations expand the essential role of ufmylation in brain development” (Brain, 2018).
Residue numbers refer to the chain shown, from its start. Names and notes keep the numbering of the source.

Target: T1, GST-UBA5 (UniProt Q9GZZ9 1-404)
T1 construct: also called E1-like enzyme for ufmylation; source: recombinant, E. coli, purified on Glutathione Sepharose 4B (GST kept)
Test: pull-down; GST-UBA5 bound to Glutathione Sepharose 4B, incubated 20 min at 4°C with purified proteins in 20 mM Tris-Cl pH 7.5, 150 mM NaCl, 1 mM EDTA, 1 mM DTT, 0.05% Nonidet P-40; NuPAGE and Coomassie staining
Conditions: both partners purified

T1 sequence (Q9GZZ9 whole entry): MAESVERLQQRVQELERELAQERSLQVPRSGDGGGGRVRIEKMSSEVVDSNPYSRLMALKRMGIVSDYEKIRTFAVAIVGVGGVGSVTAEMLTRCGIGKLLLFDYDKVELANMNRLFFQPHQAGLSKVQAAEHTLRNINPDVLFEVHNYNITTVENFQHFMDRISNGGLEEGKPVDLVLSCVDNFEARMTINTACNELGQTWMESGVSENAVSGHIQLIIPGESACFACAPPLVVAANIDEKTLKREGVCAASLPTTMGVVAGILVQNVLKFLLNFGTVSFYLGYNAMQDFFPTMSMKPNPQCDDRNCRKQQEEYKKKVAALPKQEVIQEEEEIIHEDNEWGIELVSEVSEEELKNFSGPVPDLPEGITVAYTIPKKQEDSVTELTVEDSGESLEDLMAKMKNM

B1: UFC1 (wild type, recombinant) (enzyme, human, UniProt Q9Y3C8 1-167, looked up)
chain: MADEATRRVVSEIPVLKTNAGPRDRELWVQRLKEEYQSLIRYVENNKNADNDWFRLESNKEGTRWFGKCWYIHDLLKYEFDIEFDIPITYPTTAPEIAVPELDGKTAKMYRGGKICLTDHFKPLWARNVPKFGLAHLMALGLGPWLAVEIPDLIQKGVIQHKEKCNQ
notes: UFC1, human, the E2-like conjugating enzyme of UFM1; also called E2-like enzyme for ufmylation; source: recombinant, E. coli, purified on Glutathione Sepharose 4B, GST removed by PreScission protease
B1: binds.

B2: UFC1 T106I (recombinant) (enzyme, human, UniProt Q9Y3C8 1-167, looked up)
chain: B1 chain with T106I
notes: UFC1, human, with the patients' homozygous variant c.317C>T p.(Thr106Ile); A variant found in patients; also called p.(Thr106Ile); source: recombinant, E. coli, purified on Glutathione Sepharose 4B, GST removed by PreScission protease
B2: binds.
